Experimental data: US20260193366A1 (APOGEE THERAPEUTICS, published 2026)
Residue numbers refer to the chain shown, from its start.

T1: hIL-4Rα on cells (human, UniProt P24394 26-825)
T1 sequence: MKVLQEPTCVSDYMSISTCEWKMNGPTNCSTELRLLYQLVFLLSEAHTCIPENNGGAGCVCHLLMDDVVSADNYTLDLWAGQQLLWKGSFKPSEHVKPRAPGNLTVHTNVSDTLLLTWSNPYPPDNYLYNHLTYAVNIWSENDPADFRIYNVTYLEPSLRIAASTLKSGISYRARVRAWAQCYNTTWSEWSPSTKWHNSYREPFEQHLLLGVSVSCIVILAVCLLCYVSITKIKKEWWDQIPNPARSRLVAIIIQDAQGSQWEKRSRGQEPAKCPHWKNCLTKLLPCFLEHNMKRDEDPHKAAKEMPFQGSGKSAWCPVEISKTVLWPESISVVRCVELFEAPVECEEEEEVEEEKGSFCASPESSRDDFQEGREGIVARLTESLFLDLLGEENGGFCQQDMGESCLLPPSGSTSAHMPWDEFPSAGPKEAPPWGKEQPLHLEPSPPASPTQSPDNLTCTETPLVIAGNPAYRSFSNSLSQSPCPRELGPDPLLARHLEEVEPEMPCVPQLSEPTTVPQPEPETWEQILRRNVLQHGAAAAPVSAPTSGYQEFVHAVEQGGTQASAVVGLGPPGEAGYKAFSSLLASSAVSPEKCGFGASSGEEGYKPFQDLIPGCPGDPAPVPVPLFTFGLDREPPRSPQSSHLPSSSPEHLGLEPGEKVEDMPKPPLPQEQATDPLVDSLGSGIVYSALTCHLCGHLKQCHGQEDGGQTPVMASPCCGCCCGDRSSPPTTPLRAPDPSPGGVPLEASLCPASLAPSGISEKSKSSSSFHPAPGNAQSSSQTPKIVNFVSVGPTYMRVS

T2: human IL-4Rα (human, UniProt P24394 26-232)
T2 construct: also called Hu IL-4Rα; hIL-4Rα
T2 sequence: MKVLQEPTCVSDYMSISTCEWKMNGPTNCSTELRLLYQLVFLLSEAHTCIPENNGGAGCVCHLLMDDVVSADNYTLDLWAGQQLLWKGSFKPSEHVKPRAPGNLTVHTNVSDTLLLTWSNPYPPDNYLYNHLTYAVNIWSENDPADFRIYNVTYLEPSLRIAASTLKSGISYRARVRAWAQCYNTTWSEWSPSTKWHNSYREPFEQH

T3: cynomolgus monkey IL-4Rα (cynomolgus monkey, UniProt P24394 26-231 (human entry), limits assumed)
T3 construct: also called Cyno IL-4Rα; cyIL-4Rα
T3 chain: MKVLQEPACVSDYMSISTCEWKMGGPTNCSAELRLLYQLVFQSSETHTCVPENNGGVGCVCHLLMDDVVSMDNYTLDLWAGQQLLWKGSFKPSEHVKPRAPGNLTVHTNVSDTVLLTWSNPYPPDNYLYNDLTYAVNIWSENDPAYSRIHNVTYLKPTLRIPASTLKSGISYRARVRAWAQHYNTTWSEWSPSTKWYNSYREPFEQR

B1: Construct 24 (mAb432) (antibody, IgG4, V domains shown)
VH: EVQLVESGGGLEQPGGSLRLSCAGSGFTFRDFAMTWVRQAPGKGLEWVSSISGSGGNIYYADSVKGRFTISRDNSKNTLYLQMNSLRAEDTAVYYCAKDRLSIAVRPRYYGLDVWGQGTTVTVSS
VL: DIVMTQSPLSLPVTPGEPASISCTASQSLLYSIGKNYVDWYLQKSGQSPQLLIYLGNNRATGVPDRFSGSGSGTDFTLKISRVEAEDVGFYYCMQSLTSPYTFGQGTKLEIK
notes: VH/VL only
B2: Construct 31 (mAb443) (antibody, IgG4, V domains shown)
VH: B1 VH with I103V, A104T
VL: B1 VL with T24R, A25S, I33N, K35Y, V38L, N57S, T61S, S96A, T98Q, S99A
notes: VH/VL only
B3: Construct 38 (mAb471) (antibody, IgG4, V domains shown)
VH: B1 VH with I103V, A104T
VL: B1 VL with T24R, A25S, L55E, N58K, T61S
notes: VH/VL only
B4: Construct 38 (mAb471) with IgG1 YTE LALA heavy chain constant region (antibody, V domains shown)
VH: B1 VH with I103V, A104T
VL: B1 VL with T24R, A25S, L55E, N58K, T61S
B5: Construct 31 (mAb443) with IgG1 YTE LALA heavy chain constant region (antibody, V domains shown)
VH: B1 VH with I103V, A104T
VL: B1 VL with T24R, A25S, I33N, K35Y, V38L, N57S, T61S, S96A, T98Q, S99A
B6: Construct 13 (mAb422) with IgG1 YTE LALA heavy chain constant region (antibody, V domains shown)
VH: B1 VH with I51V, I58T, I103V, A104T
VL: B1 VL with T24R, A25S, L29V, K35Y, N58K, T61S
B7: Construct 24 (mAb432) with IgG1 YTE LALA heavy chain constant region (antibody, V domains shown)
VH: B1 VH
VL: B1 VL
B8: Construct 15 (mAb423) with IgG1 YTE LALA heavy chain constant region (antibody, V domains shown)
VH: B1 VH with I103K, A104T, V105I
VL: B1 VL with K35Y, N58K, T61S

Each binder was assayed against T1, hIL-4Rα on cells (assay: cell-based or functional assay).

Binder	Relative Inhibition of IL-4 induced pSTAT6 IC50	Relative Inhibition of IL-13 induced pSTAT6 IC50
B1	0.629 relative to dupilumab	0.586 relative to dupilumab
B2	1.23 relative to dupilumab	1.61 relative to dupilumab
B3	0.723 relative to dupilumab	1.56 relative to dupilumab

These binders were tested against T1, hIL-4Rα on cells (assay: FACS on HEK293 cells, competitor biotin-hIL-4;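 for Relative Blockade of IL-4 Binding IC50: HEK293 cells stably co-expressing hIL-13Rα and hIL-4Rα, stained for 1 h at 4 °C, read-out as mean fluorescence intensity by flow cytometry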).
Protocol: (§1) Briefly, HEK293 previously transduced to stably express both hIL-13Rα and hIL-4Rα were cultured and harvested. Cells were seeded at 200,000 cells in 100 uL per well. Cells were washed and the supernatant discarded. […] The cells were stained in this mixture at 4° C. for 1 hour. […] Cells were incubated 4° C. for 1 hour, protected from light. Cells were then washed and the MFI of cells in each well were recorded by FACS using a BD FACSCanto II. Subsequent data were analyzed using GraphPad Prism.

Binder	Relative Blockade of IL-4 Binding IC50
B1	0.973 relative to dupilumab
B2	1.01 relative to dupilumab
B3	0.981 relative to dupilumab

Molecular target: T1, hIL-4Rα on cells
Assay: FACS on HEK293 cells, competitor biotin-hIL-4
Remark: another data set of the same source
Protocol: as §1
(§2) The values reflect absolute IC₅₀ measurements.

Binder	IC50 [nM]
B4	0.271
B5	0.279
B6	0.238
B7	0.234
B8	0.23

Molecular target: T1, hIL-4Rα on cells
Assay: cell-based or functional assay
Remark: another data set of the same source

Binder	Inhibition of IL-4 induced TF-1 Proliferation IC50 [nM]	Inhibition of IL-13 induced TF-1 Proliferation IC50 [nM]
B4	0.052	0.161
B5	0.058	0.175
B6	0.038	0.119
B7	0.052	0.166
B8	0.028	0.117

Molecular target: T1, hIL-4Rα on cells
Assay: cell-based or functional assay
Remark: another data set of the same source

Binder	Inhibition of IL-4 induced pSTAT6 IC50 [nM]	Inhibition of IL-13 induced pSTAT6 IC50 [nM]
B4	0.248	1.05
B5	0.452	0.916
B6	0.185	0.612
B7	0.269	1.09
B8	0.122	0.599

The binders below were run against T1, hIL-4Rα on cells (assay: FACS on HEK293 cells, competitor biotin-hIL-13;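 for Relative Blockade of IL-13 Binding IC50: stably transduced cells co-expressing both receptor chains, stained cold, with cell-bound signal read as mean fluorescence intensity by flow cytometry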).
Protocol: as §1, §2

Binder	IC50 [nM]
B4	0.226
B5	0.209
B6	0.235
B7	0.234
B8	0.204

Molecular target: T1, hIL-4Rα on cells
Assay: cell-based or functional assay
Remark: another data set of the same source

Binder	Relative Inhibition of IL-4 induced TF-1 Proliferation IC50	Relative Inhibition of IL-13 induced TF-1 Proliferation IC50
B1	1.03 relative to dupilumab	0.693 relative to dupilumab
B2	1.25 relative to dupilumab	1.24 relative to dupilumab
B3	1.04 relative to dupilumab	1.2 relative to dupilumab

Molecular target: T1, hIL-4Rα on cells
Assay: cell-based or functional assay
Remark: another data set of the same source

Binder	Inhibition of IL-4 induced TARC IC50 [nM]	Inhibition of IL-13 induced TARC IC50 [nM]
B4	0.259	0.527
B5	0.228	0.456
B6	0.179	0.261
B7	0.222	0.361
B8	0.127	0.212

Molecular target: T1, hIL-4Rα on cells
Assay: cell-based or functional assay
Remark: another data set of the same source

Binder	Relative Inhibition of IL-4 induced TARC IC50	Relative Inhibition of IL-13 induced TARC IC50
B1	0.445 relative to dupilumab	0.594 relative to dupilumab
B2	1.37 relative to dupilumab	0.703 relative to dupilumab
B3	1.17 relative to dupilumab	1.63 relative to dupilumab

Each binder was assayed against T2, human IL-4Rα (assay: SPR, Carterra LSA;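 note: antibodies captured on an anti-human Fc sensor chip, antigen injected at several concentrations, association and dissociation rates fitted with a 1:1 Langmuir model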).
Protocol: (§3) Binding affinity (KD) of antibodies to human and cynomolgus monkey IL-4Rα was determined through surface plasmon resonance (SPR) using a Carterra LSA. Briefly, an HC30M sensor chip that was previously functionalized with a polyclonal mixture of goat anti-human Fc antibody and used to capture purified antibodies at a level between 100-1000 RLU. […] Regeneration of the chip between different concentrations of antigen was performed with 200 mM phosphoric acid and antibody was captured again as previously described. Association and dissociation rate constants were subsequently determined through fitting to a 1:1 Langmuir binding model using the Kinetics Software from Carterra from which a KD value was derived.

Binder	KD Relative to Dupilumab	Kd [pM]
B1	0.79	8.91
B2	0.73	8.29
B3	0.52	5.89

Molecular target: T3, cynomolgus monkey IL-4Rα
Assay: SPR, Carterra LSA;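 note: antibodies captured on an anti-human Fc sensor chip, antigen injected at several concentrations, association and dissociation rates fitted with a 1:1 Langmuir model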
Protocol: as §3

Binder	KD Relative to Dupilumab	Kd [nM]
B1	0.11	66.9
B2	0.67	421
B3	0.4	249

Molecular target: T1, hIL-4Rα on cells
Assay: FACS on HEK293 cells, competitor biotin-hIL-13
Remark: another data set of the same source

Binder	Relative Blockade of IL-13 Binding IC50
B1	0.825 relative to dupilumab
B2	0.964 relative to dupilumab
B3	0.996 relative to dupilumab

These binders were tested against T2, human IL-4Rα (assay: KinExA).
Protocol: Binding affinity (KD) of exemplary antibodies to human IL-4Rα was determined using the Kinetic Exclusion Assay (KinExA). Briefly, antibody and recombinant human IL-4Rα were equilibrated in solution. […] Samples were incubated for a time period ranging from 3.5 hours to 340 hours, to fully reach equilibrium. Once samples reached equilibrium, azlactone beads previously coated with recombinant human IL-4Rα were used to capture any free antibody from the equilibrated solution. […] The KinExA 4000 instrument was used to capture fluorescent signal and convert to a voltage signal that is directly proportional to the amount of free antibody in all the equilibrated samples, allowing for the determination of the apparent affinity of the antibody.

Binder	KD Relative to Dupilumab	Kd [pM]
B1	0.105	0.118
B2	0.252	0.282
B3	0.376	0.421
